Assay results: the RNAGym collection of RNA variant scans (doi:10.1073/pnas.2313332121)

B1: TPR t1 (parent)
chain: GACCAAUCUGCCCUCAGAGCUCGAGAACAUCUUCGGAUGCAGAGGAGGCAGGCUUCGGUGGCGCGAUAGCGCCAACGUCCUCAACCUCCAAUGCAUCCCACCACAUGAUGAUGCCUGAAGAGCCUUGGUUUUUUG

Variants of: B1
Test: polymerase ribozyme fitness, log enrichment relative to wild type (log ratio); higher = more active; in vitro selection for triplet polymerase activity
Summary of the method: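 PCR was used to build mutant libraries for each subunit of a heterodimeric triplet polymerase ribozyme, which were then transcribed. A single in vitro selection round, in triplicate, used a frozen incubation at −7 °C and recovered extended constructs by gel excision, streptavidin beads and RT-PCR. Fitness is the logarithm of genotype enrichment relative to wild-type enrichment, averaged over replicates with inverse-variance weights. The logarithm is base 2, and after Illumina sequencing only genotypes with ≥10 input reads and ≥1 read per output were kept.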

Row | Variant | polymerase ribozyme fitness (log ratio)
1 | A27U G39C G120U | -2.78
2 | A26U G39U G60C U78C G117C | -6.27
3 | A24G G128A | -3.49
4 | A24G G128U | -4.32
5 | C28G C34U G35U A37U A95C C114U U133G | -6.83
6 | A27G U55A G77C A95C | -4.8
7 | A26U C82G C97A C98A U112A | -6.74
8 | A26G C70U | -2.78
9 | A26G C73A | -1.78
10 | A24G U87A | -1.94
11 | A27G A46G C89G | -4.52
12 | A27U C53A C56A U131G | -2.89
13 | A26U C53A U78A G110A | -5.05
14 | A27C C86G U133A | -5.16
15 | G23A G77C G120C | -6.71
16 | A26U U54C U133A | -4
17 | A27C G120U | -4.08
18 | A27C G120A | -3
19 | A27U C73A U129C | -3.27
20 | A27G A50C A111U | -3.29
21 | A27U G48U A50U C123U | -2.86
22 | G23C C123A | -6.41
23 | A26G G42C | -4.99
24 | A24G G63U G113U | -6.59

Row | Variant | polymerase ribozyme fitness (log ratio)
25 | G25A A121U | -2.9
26 | A26U C82G | -4.82
27 | A24C A37C A121U | -6.59
28 | A26U G44A G48U C82U G122A | -6.34
29 | A27G C62U C94A U106C | -4.15
30 | A26U C124U | -2.17
31 | C28A C79A A111C U112G | -6.04
32 | G23A G61A U87C | -6.59
33 | C28A C70G C79G U130C | -6.51
34 | A26U G42C | -6.73
35 | A24G G48A A83G | -2.89
36 | A26G U129C | -2.73
37 | G23C A27C C53U U54C C62A C88G C99U C124U U130A U131G | -7.2
38 | A24G C40G G52U | -4.31
39 | A24U A83U C94U A111C G122A | -6.94
40 | G23C A27G G110U | -6.38
41 | A26U C72G G120A | -2.51
42 | A26G A43U G69U U112A | -0.179
43 | A26G A27U A74G C115U C124U | -5.7
44 | G25U | -5.58
45 | G25C | -5.94
46 | G25A | -4.68
47 | A26G C53A U81G | -3.49
48 | A27G G52A C56U | -2.59

Row | Variant | polymerase ribozyme fitness (log ratio)
49 | A27C G71A U116C | -4.74
50 | A26G G51U | -5.11
51 | A27U C40A C70A | -6.74
52 | A26U C62U G71C G93A G120U | -3.6
53 | A27C C28G | -4
54 | A27C C28U | -5.13
55 | A27U U54A A75U U78C G127C | -6.04
56 | A24C G63A | -6.87
57 | A26C U54G C70A U109G | -5.98
58 | A27G G45U U96G G120U | -3.04
59 | A26C | -6.07
60 | A26G | -1.67
61 | A26U | -2.98
62 | A26U G47A | -4.24
63 | A27U G60U G128A | -4.65
64 | G23C A29C G48C U106G C114U | -8.24
65 | A27U U54C U109A G117A A118U U129G | -5.85
66 | A24G A41G C88U U92A U112A U131C | -3.58
67 | A26G G63A C124G | -0.0451
68 | A24G A46U C72G G93C G120U C124U | -5.77
69 | A24U A83U | -7.24
70 | A26G C49U G63A A84C | -4.24
71 | G25U G39U G44U C73A | -6.92
72 | A27C G42C G71A G120C U126A U130G | -6.83

Row | Variant | polymerase ribozyme fitness (log ratio)
73 | A27U G77U U78G A111C | -6.32
74 | A27U | -2.89
75 | A27C | -2.85
76 | A27G | -1.52
77 | A27U G122A | -4.26
78 | A26C G69U | -3.86
79 | A26C G69C | -7.17
80 | A26G C62U U133A | -4.26
81 | A27U G71A U96A U109A | -6.15
82 | A27G C89A | -3.54
83 | C28G A66G C123U | -3.76
84 | A26U A46C A90G U106A G127C | -2.32
85 | A27U G44U G69C C89U | -6.05
86 | A26G G42C C72A | -5.15
87 | A27G U96G C99G U129A | -6.24
88 | A27G U55A | -2.6
89 | A27U C49A C56U C62U U87G G113C | -6.58
90 | G23C C56A U59G G113A | -6.74
91 | A27C A43C C114U | -4.33
92 | A27U G61A | -2.77
93 | A27U A29C | -4.78
94 | A26G G69U | -2.23
95 | A27U A83U C86U U129C | -3.64
96 | A27U C115U | -3.71

Row | Variant | polymerase ribozyme fitness (log ratio)
97 | A27U G44C G47C U112A | -3.34
98 | A27G C88U U92A C104A U109C A119G U133A | -7.24
99 | A27C C49U G61U U92C | -6.24
100 | A27U G47U | -2.07
101 | A27U C49U | -3.64
102 | A24G A111G G122U | -5
103 | C28G A46U | -3.8
104 | A27G C86U | -2.44
105 | A26G A50G C56G C82G | -3.42
106 | A26G G45A G120C | -1.66
107 | A24G G47A C73A | -1.58
108 | A24C C56U C114G | -5.71
109 | A27C C124G | -0.608
110 | G25C A29G U33C G60A C98U G113C | -7.69
111 | G25C C70G G107A A111U U129G | -7.14
112 | A26C U92A | -5.95
113 | A24U C49A C82G U112A U133C | -4.62
114 | A24U C72G | -5.64
115 | A26G C82A G113A A119U G120C | -3.14
116 | C28A C56U | -2.94
117 | A24G C94A | -2.52
118 | G23U G42A A46U G69U U109A C123U | -5.99
119 | A26G G47A C49G G71U | -4.24
120 | A26U C114U | -5.07

Row | Variant | polymerase ribozyme fitness (log ratio)
121 | A26U C114A | -3.87
122 | G25U C56G U81G A121G C124U | -5.96
123 | A27U U81C U132C | -4.09
124 | A27U A105U | -4.58
125 | A27G C49U A91C | -4.72
126 | C28A A50C C72U G113A | -3.3
127 | A26C A43C A46C C56G C86A A90G C123G | -6.74
128 | A26G C62A C82U | -3.78
129 | C28G A41C | -4.58
130 | G23C G45C G51U G71C G120C | -6.31
131 | A27G G45A | -2.35
132 | A26G G60U C97U | -2.92
133 | C28A A41U C53G C104G G110A | -6.89
134 | A24G G51A U78C | -6.04
135 | A26G G71C C79G | -3.86
136 | C28A G47A C79U G110C | -2.69
137 | G25A C72G | -5.55
138 | G23U C123U | -4.37
139 | A24C G39C C114U G120C | -5.54
140 | A27U A43U | -5.8
141 | A27U A43G | -5.43
142 | A27G U32G C62U U78G G120C | -6.42
143 | A24U G35C C49A G63A A111G C124U G135A | -6.36
144 | C28A C73A | -4.02

Row | Variant | polymerase ribozyme fitness (log ratio)
145 | C28A C56U A121G | -2.77
146 | A24G G36C C49A G63U | -4.77
147 | G25U C72U | -6.27
148 | A24G G42U G60U C88G A121G | -1.74
149 | G25A G60C | -7.2
150 | A24G C124A | 0.386
151 | A26U A119G | -2.12
152 | A27U U96C C124G | -1.73
153 | A27U U38C A46U G48A G69U G110U C114U A119G | -6.11
154 | A24U C34A U59A G63U C80A G113A | -7.46
155 | G23U A29G C70A A83U C85A C115U | -7.23
156 | A27G G61A U81C A84C C104U G110U U131C | -2.62
157 | A26U G69U | -1.44
158 | G23C G120C | -5.28
159 | G23C U59C C98U C101A U112C | -7.02
160 | A27U C73U A75G | -3.03
161 | A26U G135A | -3.67
162 | A24G G48A C64U | -2.39
163 | A26U G42U G69C C72A C79U G110C | -7.46
164 | A27C U78G U125A | -4.05
165 | A26G G36U C72G | -4.71
166 | A26U G61U U112C | -2.62
167 | A24G U54G G57C C124U | -2.01
